Substitutions are numbered along the chain they refer to. In names and notes the source's numbering stands.
B1: Antibody 2: Murine germline sequence Antibody 1 was derived from; VH SEQ ID NO: 25, VL SEQ ID NO: 26 (antibody, V domains shown)
VH: QVQLQQSGAELARPGASVKLSCKASGYTFTSYGISWVKQRTGQGLEWIGEIYPRSGNTYYNEKFKGKATLTADKSSSTAYMELRSLTSEDSAVYFCARDYGSSRYAMDYWGQGTSVTVSS
VL: SIVMTQTPKFLPVSAGDRVTMTCKASQSVGNNVAWYQQKPGQSPKLLIYYASNRYTGVPDRFTGSGSGTDFTFTISSVQVEDLAVYFCQQHYSSPLTFGAGTKLELK
B2: Antibody 5: Antibody 3 with VL mutation Q90H; VH SEQ ID NO: 27, VL SEQ ID NO: 31 (antibody, V domains shown)
VH: B1 VH with Y32S, Y52L, N57Y, Y59N, Y100F
VL: B1 VL with G30R, N31Y, Q90H, S93N
B3: Antibody 6: Antibody 5 with LCDR3 reversion N93S; VH SEQ ID NO: 27, VL SEQ ID NO: 32 (antibody, V domains shown)
VH: B1 VH with Y32S, Y52L, N57Y, Y59N, Y100F
VL: B1 VL with G30R, N31Y, Q90H

Molecular target: LPAR1 (Homo sapiens, UniProt Q92633)
Sequence (Q92633 whole entry): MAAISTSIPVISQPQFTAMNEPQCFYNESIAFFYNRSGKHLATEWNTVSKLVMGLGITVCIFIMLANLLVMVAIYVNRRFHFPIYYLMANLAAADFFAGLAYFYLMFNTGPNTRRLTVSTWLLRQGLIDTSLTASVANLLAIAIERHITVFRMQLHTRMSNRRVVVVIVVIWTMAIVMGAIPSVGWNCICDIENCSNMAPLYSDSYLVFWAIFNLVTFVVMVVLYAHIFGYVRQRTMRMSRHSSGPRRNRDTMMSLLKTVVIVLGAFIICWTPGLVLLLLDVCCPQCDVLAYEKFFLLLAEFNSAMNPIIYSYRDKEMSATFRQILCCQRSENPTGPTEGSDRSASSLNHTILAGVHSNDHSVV
Assay: LPAR1 binding affinity during discovery and affinity maturation, method not stated
Design: expressed in transfected cells
Conditions: stated in words

Molecule | binding affinity for LPAR1
B1 | extremely low binding affinity
B2 | improved affinity
B3 | large affinity gain

Reference: patent publication US12599645B2, “Antibodies which bind to lysophosphatidic acid receptor 1 (LPAR1)” (DJS ANTIBODIES LTD, priority 2021, dated 2026)
